Test results as given in US20090136977A1 (published 2009).
Each block holds one binder with its values, some of them ahead of it.

Biological target: affinity purified BACE1 (BACE1-myc, wild type) (UniProt P56817 22-501, limits assumed)
Assay: cell-based or functional assay

Chain of affinity purified BACE1 (BACE1-myc, wild type) (P56817 22-501 limits assumed, form in doubt): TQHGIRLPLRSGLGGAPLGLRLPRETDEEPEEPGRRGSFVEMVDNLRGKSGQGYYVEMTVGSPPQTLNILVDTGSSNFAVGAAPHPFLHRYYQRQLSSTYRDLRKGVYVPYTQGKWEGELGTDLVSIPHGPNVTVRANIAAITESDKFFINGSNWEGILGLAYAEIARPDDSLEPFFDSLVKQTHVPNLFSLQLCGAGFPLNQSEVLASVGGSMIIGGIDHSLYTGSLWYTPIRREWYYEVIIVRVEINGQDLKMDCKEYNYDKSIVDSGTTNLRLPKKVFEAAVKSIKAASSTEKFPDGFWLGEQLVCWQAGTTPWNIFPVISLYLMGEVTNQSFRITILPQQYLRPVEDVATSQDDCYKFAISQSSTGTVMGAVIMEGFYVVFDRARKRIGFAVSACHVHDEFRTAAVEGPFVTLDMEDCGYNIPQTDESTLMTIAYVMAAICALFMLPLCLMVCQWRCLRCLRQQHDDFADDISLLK

acetyltransferase activity recovered from cell extracts (acceptor: affinity purified BACE1): ~2 fold
B1: ATase1 (acetyltransferase 1) with a myc tag at the C-terminus (enzyme, not shown: small tags and cut ends)
chain: MAPYHIRKYQESDRKSVVGLLSRGMAEHAPATFRRLLKLPRTLILLLGGALALLLVSGSWILALVFSLSLLPALWFLAKKPWTRYVDIALRTDMSDITKSYLSECGSCFWVGESEEKVVGTVGALPVDDPTLREKRLQLFHLSVDNEHRGQGIAKALVRTVLQFARDQGYSEVVLDTSNIQLSAMGLYQSLGFKKTGQSFFHVWARLVDLHTVHFIYHLPSAQAGRL

acetylCoA:lysine acetyltransferase activity recovered from total cell extracts (acceptor: affinity purified BACE1): ~3 fold
B2: ATase2 (acetyltransferase 2) with a myc tag at the C-terminus (enzyme, not shown: small tags and cut ends)
chain: MAPCHIRKYQESDRQWVVGLLSRGMAEHAPATFRQLLKLPRTLILLLGGPLALLLVSGSWLLALVFSISLFPALWFLAKKPWTEYVDMTLCTDMSDITKSYLSERGSCFWVAESEEKVVGMVGALPVDDPTLREKRLQLFHLFVDSEHRRQGIAKALVRTVLQFARDQGYSEVILDTGTIQLSAMALYQSMGFKKTGQSFFCVWARLVALHTVHFIYHLPSSKVGSL
